From paper PMC10527876

Target: human CYP2D6 (human) (UniProt P10635)
UniProt P10635, sequence (P10635 whole entry): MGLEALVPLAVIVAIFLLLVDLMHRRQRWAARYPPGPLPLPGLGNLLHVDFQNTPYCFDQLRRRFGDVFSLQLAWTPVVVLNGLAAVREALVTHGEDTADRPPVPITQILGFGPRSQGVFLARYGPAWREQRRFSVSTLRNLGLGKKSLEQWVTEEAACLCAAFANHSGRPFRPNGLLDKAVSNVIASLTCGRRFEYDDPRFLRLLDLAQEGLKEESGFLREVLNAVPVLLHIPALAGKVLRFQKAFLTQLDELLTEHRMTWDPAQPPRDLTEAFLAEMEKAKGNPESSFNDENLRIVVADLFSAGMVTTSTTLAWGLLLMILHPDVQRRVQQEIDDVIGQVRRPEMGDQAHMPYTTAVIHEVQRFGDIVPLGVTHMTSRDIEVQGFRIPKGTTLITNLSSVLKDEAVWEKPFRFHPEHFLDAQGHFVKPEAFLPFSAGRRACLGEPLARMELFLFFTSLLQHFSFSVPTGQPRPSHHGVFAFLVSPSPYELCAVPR

B1: human UGT1A8 (enzyme)
chain: GKLLVVPMDGSHWFTMQSVVEKLILRGHEVVVVMPEVSWQLGKSLNCTVKTYSTSYTLEDLDREFMDFADAQWKAQVRSLFSLFLSSSNGFFNLFFSHCRSLFNDRKLVEYLKESSFDAVFLDPFDACGLIVAKYFSLPSVVFARGIACHYLEEGAQCPAPLSYVPRILLGFSDAMTFKERVRNHIMHLEEHLFCQYFSKNALEIASEILQTPVTAYDLYSHTSIWLLRTDFVLDYPKPVMPNMIFIGGINCHQGKPLPMEFEAYINASGEHGIVVFSLGSMVSEIPEKKAMAIADALGKIPQTVLWRYTGTRPSNLANNTILVKWLPQNDLLGHPMTRAFITHAGSHGVYESICNGVPMVMMPLFGDQMDNAKRMETKGAGVTLNVLEMTSEDLENALKAVINDKSYKENIMRLSSLHKDRPVEPLDLAVFWVEFVMRHKGAPHLRPAAHDLTWYQYHSLDVIGFLLAVVLTVAFITFKCCAYGYRKCLGKKGRVKKAHKSKTH
production of 4-hydroxypropranolol from propranolol by CYP2D6 in co-expressing enzyme bags (SAN307), against the CYP2D6 control strain SAN300: 2.1 fold
production of 5-hydroxypropranolol from propranolol by CYP2D6 in co-expressing enzyme bags (SAN307), against the CYP2D6 control strain SAN300: 4.8 fold

B2: human UGT1A9 (enzyme)
chain: GKLLVVPMDGSHWFTMRSVVEKLILRGHEVVVVMPEVSWQLGRSLNCTVKTYSTSYTLEDLDREFKAFAHAQWKAQVRSIYSLLMGSYNDIFDLFFSNCRSLFKDKKLVEYLKESSFDAVFLDPFDNCGLIVAKYFSLPSVVFARGILCHYLEEGAQCPAPLSYVPRILLGFSDAMTFKERVRNHIMHLEEHLLCHRFFKNALEIASEILQTPVTEYDLYSHTSIWLLRTDFVLDYPKPVMPNMIFIGGINCHQGKPLPMEFEAYINASGEHGIVVFSLGSMVSEIPEKKAMAIADALGKIPQTVLWRYTGTRPSNLANNTILVKWLPQNDLLGHPMTRAFITHAGSHGVYESICNGVPMVMMPLFGDQMDNAKRMETKGAGVTLNVLEMTSEDLENALKAVINDKSYKENIMRLSSLHKDRPVEPLDLAVFWVEFVMRHKGAPHLRPAAHDLTWYQYHSLDVIGFLLAVVLTVAFITFKCCAYGYRKCLGKKGRVKKAHKSKTH
production of 4-hydroxypropranolol from propranolol by CYP2D6 in co-expressing enzyme bags (SAN308), against the CYP2D6 control strain SAN300: 2.8 fold
production of 5-hydroxypropranolol from propranolol by CYP2D6 in co-expressing enzyme bags (SAN308), against the CYP2D6 control strain SAN300: 5.8 fold

B3: human UGT1A7 (enzyme)
chain: GKLLVVPMDGSHWFTMQSVVEKLILRGHEVVVVMPEVSWQLGRSLNCTVKTYSTSYTLEDQDREFMVFADARWTAPLRSAFSLLTSSSNGIFDLFFSNCRSLFNDRKLVEYLKESCFDAVFLDPFDACGLIVAKYFSLPSVVFARGIFCHYLEEGAQCPAPLSYVPRLLLGFSDAMTFKERVWNHIMHLEEHLFCPYFFKNVLEIASEILQTPVTAYDLYSHTSIWLLRTDFVLEYPKPVMPNMIFIGGINCHQGKPVPMEFEAYINASGEHGIVVFSLGSMVSEIPEKKAMAIADALGKIPQTVLWRYTGTRPSNLANNTILVKWLPQNDLLGHPMTRAFITHAGSHGVYESICNGVPMVMMPLFGDQMDNAKRMETKGAGVTLNVLEMTSEDLENALKAVINDKSYKENIMRLSSLHKDRPVEPLDLAVFWVEFVMRHKGAPHLRPAAHDLTWYQYHSLDVIGFLLAVVLTVAFITFKCCAYGYRKCLGKKGRVKKAHKSKTH
production of 4-hydroxypropranolol from propranolol by CYP2D6 in co-expressing enzyme bags (SAN306), against the CYP2D6 control strain SAN300: 3.3 fold
production of 5-hydroxypropranolol from propranolol by CYP2D6 in co-expressing enzyme bags (SAN306), against the CYP2D6 control strain SAN300: 8.4 fold
